Data: patent US12662531B2, “CLDN18.2 antibody and use thereof” (FUTUREGEN BIOPHARMACEUTICAL (BEIJING) CO., LTD., priority 2019, dated 2026)

Key:
[1] = target: T1, CLDN18.2 (CT26-CLDN18.2 cells) (Homo sapiens, UniProt P56856); experiment: Flow cytometry binding of recombinant antibodies to CT26-CLDN18.2 cells; conditions: 4° C. 1 hour
T1 construct: expressed in transfected cells; host or cells: CT26 cells (mouse), lentiviral transduction, puromycin selection
Procedure: Binding activities of the recombinant monoclonal antibodies to CLDN18.2 were determined. Specifically, well-grown cell lines stably expressing CT26-CLDN18.2 were taken. The cells were washed with PBS, mixed with the fold-diluted antibody and incubated at 4° C. for 1 hour. The cells were washed once with flow cytometry buffer, PE-labeled anti-human IgG antibody was added, and incubated at 4° C. for 30 minutes. The supernatant was removed by centrifugation, and after the cells were washed with flow cytometry buffer, the fluorescence intensity on the surface of the cells was tested by flow cytometry. The relative binding activity of each antibody was calculated using the average fluorescence intensity.
The binding activity of the defucosylated antibodies 18.2-A1F, 18.2-A3F and 18.2-A4F to CLDN18.2 as compared to the binding activity of 18.2-A1, 18.2-A3 and 18.2-A4 to CLDN18.2 was tested by flow cytometry, the method of which is as described in Example 5, and the experimental results are shown in FIG. 7.

[2] = system: control CT26 cell line; experiment: Flow cytometry binding to control CT26 cell line; conditions: results not shown
[3] = target: T2, CLDN18.2 (CLDN18.2-Flag 293t cells) (Homo sapiens, UniProt P56856); experiment: Binding specificity, 293t cells expressing CLDN18.2-Flag, flow cytometry; conditions: 10 μg/ml antibody, 4° C. 1 hour
T2 construct: expressed in transfected cells; host or cells: 293t cells, transient transfection
Text: (§1) Human Claudin18 proteins include two homologues, i.e., CLDN18.1 and CLDN18.2, which share exons other than exon 1, and the exon 1 sequences of CLDN18.1 and CLDN18.2 are highly similar with only 8 different amino acids in the first extracellular region. The exon 1 of CLDN18.1 and the exon 1 of CLDN18.2 are specifically expressed in different tissues driven by different promoters. Among them, CLDN18.1 is specifically expressed in lung epithelial cells, while CLDN18.2 is specifically expressed in gastric epithelial cells. To identify the specificity of the screened CLDN18.2 antibodies, binding of the antibodies to CLDN18.1 and CLDN18.2 was tested.
(§2) Specifically, well-grown 293t cells were taken to transiently express flag-tagged CLDN18.1 (CLDN18.1-Flag) or CLDN18.2 (CLDN18.2-Flag). 48 hours after transfection, the cells were digested with trypsin. After washed with flow cytometry buffer, the cells were mixed with 10 μg/ml of isotype control antibody or one of the above five CLDN18.2 antibodies in 200 μl of flow cytometry buffer, and were incubated at 4° C. for 1 hour. Subsequently, the cells were washed once with flow cytometry buffer, PE-labeled anti-human IgG antibody was added, and incubated at 4° C. for 30 min. The supernatant was removed by centrifugation, wash was performed twice with flow cytometry buffer, and the cells were fixed in a fix solution containing 1% paraformaldehyde and 0.5% triton-X100 and the cell membrane was permeabilized. Subsequently, the cells were incubated with APC-labeled anti-flag antibody for 30 min and tested by flow cytometry.

[4] = target: T3, CLDN18.1 (CLDN18.1-Flag 293t cells) (Homo sapiens, UniProt P56856); experiment: Binding specificity, 293t cells expressing CLDN18.1-Flag, flow cytometry; conditions: 10 μg/ml antibody, 4° C. 1 hour
T3 construct: expressed in transfected cells; host or cells: 293t cells, transient transfection
Text: as §1, §2

[5] = system: SNU601 cells expressing CLDN18.2; experiment: Endocytosis of antibody after binding to SNU601 cells stably expressing CLDN18.2; assay type: cell-based; conditions: 10 μg/ml, 4 h
Procedure: It has been reported that the binding of some antibodies to cell surface antigens can cause endocytosis of antigen and antibody complexes, thereby reducing the expression level of the cell surface antigens and accelerating antibody metabolism in vivo (Schrama D et al., 2006, Nat Rev Drug Discov). In this example, the ability of antibodies 18.2-A1, 18.2-A3, 18.2-A4 and 18.2-A6 to be endocytosed by cells was tested in SNU601 cells stably expressing CLDN18.2. […] Subsequently, they were washed at 4° C. and stained with PE-labeled anti-human IgG antibody. After fixation with 4% formalin, antibody binding on the cell surface was tested by flow cytometry.

[6] = system: FcγRIIIa; experiment: Biacore binding to FcγRIIIa; conditions: FcγRIIIa captured as ligand, antibody as analyte
Procedure: Subsequently, the binding activity of the CLDN18.2 antibody and its defucosylated form to FcγRIIIa was tested using the Biacore method. Specifically, FcγRIIIa (Sino Biological Inc, 10389-H08C1) was diluted to 0.1 μg/ml in HBS-EP buffer as a ligand, and 18.2-A1F and 18.2-A1 antibody samples were diluted to 360 μg/ml, 120 μg/ml, 40 μg/ml, 13.3 μg/ml and 4.4 μg/ml respectively as analytes. The ligand FcγRIIIa was immobilized using an indirect capture method. First, 50 μg/ml of Anti-His IgG was covalently bound to the surface of CMS chip through amino coupling, followed by the binding of the ligand and analyte. Affinity analysis experiments were performed in Biacore Wizard mode using a multi-cycle approach with FcγRIIIa as the ligand and 18.2-A1F and 18.2-A1 antibody samples as analytes.
The test for each sample includes three Start up, one zero concentration control, five gradient concentration samples and one replicate sample (reference). The chip was regenerated with 10 mM glycine-HCl, pH 1.5 regeneration solution after each cycle. Each concentration cycle of the analyte was set with a capture time of 60 s and a flow rate of the ligand solution of 10 μl/min; a binding time of ligand and analyte of 180 s, and a flow rate of the analyte solution of 30 μl/min; and a dissociation time of 180 s. The CMS chip coupled with Anti-His IgG was placed in the slot for detection and analysis. […]

[7] = system: human FcγRIIIa (V158) on FcγRIIIa-Jurkat cells; experiment: Flow cytometry binding to FcγRIIIa-Jurkat cells
Text: We next further tested the binding activity of the CLDN18.2 antibodies and their defucosylated forms to FcγRIIIa expressed on the cell surface. Specifically, the human FcγRIIIa (V158, high FC binding subtype) gene was cloned into a mammalian cell expression vector carrying a puromycin screening marker and transfected into a Jurkat cell line. A cell line stably expressing FcγRIIIa (FcγRIIIa-Jurkat) was screened with puromycin. In addition, NK92MI is a human NK cell line that naturally expresses the FcγRIIIa receptor (F158, low FC binding subtype). The binding ability of the CLDN18.2 antibodies and their defucosylated forms to FcγRIIIa expressed on the surface of FcγRIIIa-jurkat cells and NK92MI cells was tested by flow cytometry. The specific flow cytometry assay is described with reference to Example 6.

[8] = system: untransfected Jurkat cells; experiment: Flow cytometry binding to untransfected Jurkat cells; conditions: results not shown

binding to CT26 cell line expressing CLDN18.2 [1]: able to bind well | binding to CLDN18.2-flag transfected positive 293t cells [3]: able to bind well | binding to CLDN18.1-positive cells [4]: none of the six antibodies bound | binding to FcγRIIIa (Biacore) [6]: able to bind to FcγRIIIa effectively
B1: 18.2-A1: recombinant monoclonal CLDN18.2 antibody, VH SEQ ID NO: 1, VL SEQ ID NO: 6 (antibody, V domains shown)
VH: EVQLVQSGAEVKKPGASVKVSCKASGYTFTSSWLIWVRQAPGQGLEWIGTIVPSDSYTNYNQKFKDRATLTVDKSTSTAYMELSSLRSEDTAVYYCTRFRTGNSFDYWGQGTLVTVSS
VL: DIVMTQSPDSLSVGLGERATINCKSSQSVLNSGNQKNYLTWYQQKPGQPPKLLIYWAVARQSGVPDRFSGSGSGTDFTLTISSLQAEDVAVYYCQNSIAYPFTFGQGTKVEIK
modifications: 18.2-A1 VH; 18.2-A1 VL
binding to control CT26 cell line [2]: did not bind | binding to SNU601 cells expressing CLDN18.2 under 4° C. incubation ([5]; 4° C.): bound well | antibody staining/binding on the cell surface under 37° C. incubation ([5]; 37° C.): still bound well | endocytosis by cells under 37° C. incubation ([5]; 37° C.): did not undergo significant endocytosis | binding to FcγRIIIa-jurkat cells [7]: able to bind | binding to untransfected Jurkat cells [8]: not able to bind
